Experimental data reported in the supplement of paper PMC7125110.
± gives the standard error. This sample holds only a part of the variants without activity.

B1: glmS ribozyme (parent)
chain: AUAAAAGCGCCAGAACUACAGAAAUGUAGUUGACGAGGAGGAGGUUUAUCGAAUUUUCGGCGGAUGCCUCCAAA

Variants of: B1
Assay: self-cleavage kobs at 10000 uM GlcN6P; higher = faster cleavage; RNA array
Conditions: with glucosamine-6-phosphate
Outline: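 kcat and KM were obtained from weighted Michaelis–Menten fits across concentrations of kobs values. Those came from one- or two-exponential decay fits to per-tile medians normalised to baseline and to non-cleaving reference variants. The variants were barcoded ribozymes transcribed in situ by E. coli RNA polymerase on sequenced MiSeq chips and tracked through a hybridised Cy3 probe at 37 °C, with 40 μM to 10 mM glucosamine-6-phosphate in HEPES/KCl/Mg(OAc)2 buffer flowed in.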

Row | Variant | self-cleavage kobs at 10000 uM GlcN6P
1 | G29C G41C A42U | < 1e-05 s⁻¹
2 | U31A A36U U47G C70G | 5.95e-05 ± 1.5e-05 s⁻¹
3 | A15G A52G C67U C71G | 4.89e-05 ± 1.3e-05 s⁻¹
4 | G59A C68A U69A | < 1e-05 s⁻¹
5 | G38U A53U U69G | 0.000134 ± 3.5e-05 s⁻¹
6 | A15U G21U | 0.00395 ± 0.00079 s⁻¹
7 | G29A A33U | 3.01e-05 ± 5.5e-06 s⁻¹
8 | C16A G41A G51C | < 1e-05 s⁻¹
9 | G29A C67U C70U | 6.18e-05 ± 1.1e-05 s⁻¹
10 | G32U U57A C68G | 6.42e-05 ± 2.1e-05 s⁻¹
11 | A15U G59U C71G | < 1e-05 s⁻¹
12 | G29A G32U C70A | 4.82e-05 ± 1.8e-05 s⁻¹
13 | A33U U45A U55C C71U | < 1e-05 s⁻¹
14 | G41C U57G | < 1e-05 s⁻¹
15 | A36C A52U C58U G63A | < 1e-05 s⁻¹
16 | C16U G29U G32C | 8.38e-05 ± 1.7e-05 s⁻¹
17 | C16A G35C U65G | < 1e-05 s⁻¹
18 | C50G G60A C71G | 0.000124 ± 3.5e-05 s⁻¹
19 | C16U U45C U55G | 0.00144 ± 0.0003 s⁻¹
20 | G35C A42G U45G | < 1e-05 s⁻¹
21 | G35C A48G G59U G60A | < 1e-05 s⁻¹
22 | U45C U65G C70U | 0.000225 ± 6.1e-05 s⁻¹
23 | A52U U55C U65C C68G U69A | < 1e-05 s⁻¹
24 | A52C C67A | 2.55e-05 ± 1.1e-05 s⁻¹
25 | G43A A52C C58A G66U C67G U69G | < 1e-05 s⁻¹

Row | Variant | self-cleavage kobs at 10000 uM GlcN6P
26 | G40A A64U | 2.07e-05 ± 9.5e-06 s⁻¹
27 | A48U G62C C67G | < 1e-05 s⁻¹
28 | A36U G51U C68G | 4.33e-05 ± 1.7e-05 s⁻¹
29 | G32A A52G C70A | 5.69e-05 ± 2.3e-05 s⁻¹
30 | A33C G35A U46G C50U U56G C71A | < 1e-05 s⁻¹
31 | G35U G41U C67G | < 1e-05 s⁻¹
32 | C34U G38U G40U | < 1e-05 s⁻¹
33 | G43U G44U U65G | < 1e-05 s⁻¹
34 | G32U A39G U69A | 0.000121 ± 3.2e-05 s⁻¹
35 | U46C C68A | 3.47e-05 ± 1e-05 s⁻¹
36 | G32U G40U C70U | 5.9e-05 ± 1.3e-05 s⁻¹
37 | G40A G44U U47G G60U C61U C68U | < 1e-05 s⁻¹
38 | G29C C34U G38A C71U | < 1e-05 s⁻¹
39 | U31G G40U C67A | 6.16e-05 ± 1.3e-05 s⁻¹
40 | G38A U46G U57G C58A | < 1e-05 s⁻¹
41 | G60A C68U C70U | < 1e-05 s⁻¹
42 | A15C G35C C50G | 4.99e-05 ± 1.2e-05 s⁻¹
43 | G51C U55C | < 1e-05 s⁻¹
44 | A33G G37A U69G | < 1e-05 s⁻¹
45 | A39C U55G C70U | 0.000211 ± 4e-05 s⁻¹
46 | G35C G51U G62U | < 1e-05 s⁻¹
47 | G32U U45G U46C C67A | 7.22e-05 ± 2e-05 s⁻¹
48 | C16A G35U G60U | < 1e-05 s⁻¹
49 | G37C A64G C70U | 4.49e-05 ± 1.6e-05 s⁻¹
50 | G41A U56C | 3.52e-05 ± 1.7e-05 s⁻¹

Row | Variant | self-cleavage kobs at 10000 uM GlcN6P
51 | A15G C16U G51U | < 1e-05 s⁻¹
52 | A15G U49A G62U | < 1e-05 s⁻¹
53 | A48G C58A | 4.59e-05 ± 1.1e-05 s⁻¹
54 | A15C A53U C71G | 0.000151 ± 3.6e-05 s⁻¹
55 | U30A C61A | < 1e-05 s⁻¹
56 | U31G U47C U54A | 0.00049 ± 8.9e-05 s⁻¹
57 | A33U G41U U49A A52U U69A | < 1e-05 s⁻¹
58 | G32A U47G A52G C61G C71G | 6.89e-05 ± 2.1e-05 s⁻¹
59 | A64G C70A | 3.24e-05 ± 9.8e-06 s⁻¹
60 | G38U G40U G41C U47C G59C C68G | < 1e-05 s⁻¹
61 | G32A U55G U65G G66U C70G | 3.69e-05 ± 1.7e-05 s⁻¹
62 | A36G U46A C58A | < 1e-05 s⁻¹
63 | C34G A64C C67A | < 1e-05 s⁻¹
64 | A33C U46G A52U | < 1e-05 s⁻¹
65 | A53G G63C | < 1e-05 s⁻¹
66 | U49A C50G G51A C61A G62U | < 1e-05 s⁻¹
67 | U30C G40A A53C C58U | < 1e-05 s⁻¹
68 | G38U U56C | < 1e-05 s⁻¹
69 | U45G C58A G66U | 8.19e-05 ± 1.6e-05 s⁻¹
70 | C34A G35C A48U | < 1e-05 s⁻¹
71 | A15U G41U A48U U55C | < 1e-05 s⁻¹
72 | A33G G35U A39G A53U G62C | < 1e-05 s⁻¹
73 | G29C U49A C50A | < 1e-05 s⁻¹
